Laboratory results reported in patent US5919790A, “Hydroxamate inhibitors of interleukin-1β converting enzyme” (Warner-Lambert Company, priority 1997, dated 1999).

Substrate: CC(=O)N[C@@H](Cc1ccc(O)cc1)C(=O)N[C@H](C(=O)N[C@@H](C)C(=O)N[C@@H](CC(=O)O)C(=O)Nc1ccc2c(C)cc(=O)oc2c1)C(C)C
Assay: ICE inhibition, Ki, fluorescence assay with Ac-Tyr-Val-Ala-Asp-AMC
Format: biochemical
Settings: other: substrate of ICE, HGDE buffer
Description: Substrate hydrolysis is monitored for 300 seconds by observing the fluorescence of released AMC using excitation at 380 nm and emission at 460 nm. Mean rates of substrate hydrolysis are evaluated by linear-regression analysis of the fluorescence vs time traces. […] ICE Colorimetric Dose-Response (IC50) Assay

B1: ICE (interleukin-1β converting enzyme) (Homo sapiens) (protein)
chain 1: NPAMPTSSGSEGNVKLCSLEEAQRIWKQKSAEIYPIMDKSSRTRLALIICNEEFDSIPRRTGAEVDITGMTMLLQNLGYSVDVKKNLTASDMTTELEAFAHRPEHKTSDSTFLVFMSHGIREGICGKKHSEQVPDILQLNAIFNMLNTKNCPSLKDKPKVIIIQACRGDSPGVVWFKD
chain 2: AIKKAHIEKDFIAFCSSTPDNVSWRHPTMGSVFIGRLIEHMQEYACSCDVEEIFRKVRFSFEQPDGRAQMPTTERVTLTRCFYLFPGH
  Km: 15 µM
